Our source for the protein stability index values is the supplement of paper PMC10567573.

± gives the standard deviation.

This series can be described thus: protein stability index of a GFP-peptide fusion (GPS, HEK-293T) (PSI 1-6); higher = more stable. To be noted: c terminus: a fixed tail appended.
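Also: 24-mer peptide tiles fused after GFP, lentivirally expressed, FACS-sorted into six equal bins by GFP/DsRed ratio, decoded by Illumina sequencing, PSI is the read-weighted mean bin number.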

On to PMDLSTVKRKMDGREYPDAQGFAA [BRD3], for which the protein stability index worked out at 4.21 ± 0.2 (treatment: DMSO) and 4.38 ± 0.43 (treatment: MLN4924 1 uM, 8 h). For PPASARRLSVPRDSACDESSCIPK [IRX6] the same measures were 5.33 ± 0.16 and 5.31 ± 0.14. For PPGDIMFLLVQRFGELMRKLWNPR [USP39], in that order: 2.77 ± 0.31 and 2.77 ± 0.17.

In the case of PPPHLLPEKHQVPEKLIWGDQDPL [WDR88], the protein stability index (treatment: DMSO) turned out to be 4.53 ± 0.23 and the protein stability index (treatment: MLN4924 1 uM, 8 h) stood at 4.44 ± 0.15.

With PQLRICLRVSPAEQPRLEFLMRKC [FBXO33], the protein stability index (treatment: DMSO) came to 2.15 ± 0.48 and the protein stability index (treatment: MLN4924 1 uM, 8 h) stood at 2.11 ± 0.22. For PQSLPSTPKAAWIREEGRCSSSDD [PBXIP1] the same measures were 5.25 ± 0.2 and 5.27 ± 0.14. Turning to PQVLADLGSFESPANSETSDLTLY [PCDHGA10], the protein stability index came out at 4.19 ± 0.36 (treatment: DMSO) and 4.38 ± 0.34 (treatment: MLN4924 1 uM, 8 h). For the sequence PRLHIVKADENNGFGSKNTAFCTH [TBX5], the protein stability index stood at 3.43 ± 0.12 (treatment: DMSO) and 3.28 ± 0.049 (treatment: MLN4924 1 uM, 8 h).

For PSASLGKASSRKPFGILSPNVLCS [FBXO34], the protein stability index by setting is: (treatment: DMSO) 2.71 ± 0.23; (treatment: MLN4924 1 uM, 8 h) 2.8 ± 0.11. For PSIYHTMASPCSAMAYHHDSRRIF [WDFY1] the same measures were 2.14 ± 0.72 and 2.18 ± 0.4. Turning to PSLQAWNDAPCDKTFLFICKRPYV [CD207], the protein stability index is, setting by setting: (treatment: DMSO) 2.17 ± 0.28; (treatment: MLN4924 1 uM, 8 h) 2.2 ± 0.21. PSSYNCSQSILPLEHGSIYIPSSY [ESR2]: the protein stability index reads like this: (treatment: DMSO) 2.17 ± 0.2; (treatment: MLN4924 1 uM, 8 h) 2.26 ± 0.26. For PSVPDNAELVLLTLGQAWQGYVSD [DFFB], in that order: 2.64 ± 0.52 and 2.84 ± 0.32.

PSVYHAMPSPCSCMSFNPETRRLS [WDFY2]: the protein stability index (treatment: DMSO) worked out at 2.57 ± 0.36 and the protein stability index (treatment: MLN4924 1 uM, 8 h) was found to be 2.88 ± 0.41. For PTCPVCKDRASPADLRTNHTLNNL [TRIM35], in that order: 3.62 ± 0.21 and 3.9 ± 0.46. For PTLSCEKYLTYDQLRKQKKKTGKS [ELOA2] the same measures were 3.98 ± 0.19 and 4.57 ± 0.24.

For the sequence PVPVIVSNFNYFYHRETEGEEQSQ [KCNA3], the protein stability index stood at 3.81 ± 0.34 (treatment: DMSO) and 4.15 ± 0.28 (treatment: MLN4924 1 uM, 8 h).

With PVVKLLHNRSNNKYSYTSTSDDNL [KCTD13], the protein stability index reads like this: (treatment: DMSO) 3.82 ± 0.16; (treatment: MLN4924 1 uM, 8 h) 3.94 ± 0.19. Turning to PWGFRLQGGKDFNVPLSISRLTPG [PDLIM7], the protein stability index (treatment: DMSO) came to 2.66 ± 0.18 and the protein stability index (treatment: MLN4924 1 uM, 8 h) worked out at 2.66 ± 0.29. For QALGEHLKLRQQVIATATVYFKRF [CCNC], in that order: 2.54 ± 0.55 and 2.48 ± 0.42. For QALLKENRLLQEENRTLQVLRAEH [CBY2] the same measures were 4.02 ± 0.2 and 4.2 ± 0.065. For QAMFDTLGIPKSTTSDIPHMLNQV [FAM98B], in that order: 3.18 ± 0.23 and 3.23 ± 0.26. For the sequence QCSNRIGSMKIKSSWDIDGRATKR [FBXO34], the protein stability index turned out to be 3.28 ± 0.2 (treatment: DMSO) and 3.52 ± 0.28 (treatment: MLN4924 1 uM, 8 h). For the sequence QDIENALSTSSSPSGTPTNLRRHV [DLC1], the protein stability index by setting is: (treatment: DMSO) 4.96 ± 0.17; (treatment: MLN4924 1 uM, 8 h) 4.94 ± 0.2. Take QDLCCRAVVSCTPVHLVDKLPLPI [RAB40B]: the protein stability index is, setting by setting: (treatment: DMSO) 2.4 ± 0.27; (treatment: MLN4924 1 uM, 8 h) 2.09 ± 0.56. For QEDAPMIEPLVPEEKMETKTESSG [EPB41L3], in that order: 5.69 ± 0.17 and 5.63 ± 0.13. For QEDKALWEEEKALWVEERALLEGE [CCDC70] the same measures were 5.09 ± 0.3 and 5.17 ± 0.33.

In turn, QEEEQAETPMAPVPLGPLGETYCE [TRIM15] displayed a protein stability index (treatment: DMSO) of 5.4 ± 0.17 and a protein stability index (treatment: MLN4924 1 uM, 8 h) of 5.57 ± 0.16. For QEENKSLREENKALREENRMLSKE [CBY2], in that order: 5.56 ± 0.47 and 5.587 ± 0.023. For QELIQEAKPRATWTLKLDGNLQLD [RTP4] the same measures were 3.886 ± 0.038 and 3.82 ± 0.32. For QEQVAGGEAQPGLPQEDPSTSQGC [FEM1A], in that order: 5.34 ± 0.12 and 5.42 ± 0.43. QEVFEPPHYELCTLRGTGATADFA [NETO1]: the protein stability index runs as follows: (treatment: DMSO) 3.91 ± 0.28; (treatment: MLN4924 1 uM, 8 h) 3.88 ± 0.26. For QEYAAKIINTKKLSARDHQKLERE [CAMK2A], in that order: 4.71 ± 0.22 and 4.78 ± 0.19. Sequence QFEANGYFFKRPYPFVLFYSKFHG [KMT2E] registered a protein stability index (treatment: MLN4924 1 uM, 8 h) of 2.91 ± 1.9. For the sequence QFRMAQEEARRNRLMRDMAQLRLQ [SMG5], the protein stability index runs as follows: (treatment: DMSO) 2.95 ± 0.21; (treatment: MLN4924 1 uM, 8 h) 3.25 ± 0.26. Turning to QGLLGRSPPTRPVPGHRSERAIRT [SPRY1], the protein stability index (treatment: DMSO) stood at 4.51 ± 0.21 and the protein stability index (treatment: MLN4924 1 uM, 8 h) was 4.47 ± 0.2.

For QIVTKKIDLSHVTSKCGSLKNIRH [MAP2], the protein stability index is, setting by setting: (treatment: DMSO) 2.67 ± 0.039; (treatment: MLN4924 1 uM, 8 h) 2.71 ± 0.2.
